From PMC6737914, “Dissection of GTPase-activating proteins reveals functional asymmetry in the COPI coat of budding yeast” (Journal of Cell Science, 2019)

Biological target: T1, TAP-purified coatomer (TAP-tagged β′-COP) (S. cerevisiae, UniProt P53622 1-1201; P41811 1-889; P40509 1-296; P41810 1-973; P32074 1-935; P43621 …)
T1 construct: α-COP subunit of coatomer, S. cerevisiae; β′-COP subunit of coatomer, S. cerevisiae, TAP-tagged; ε-COP subunit of coatomer, S. cerevisiae; β-COP subunit of coatomer, S. cerevisiae; γ-COP subunit of coatomer, S. cerevisiae; δ-COP subunit of coatomer, S. cerevisiae; ζ-COP subunit of coatomer, S. cerevisiae; The complex was released by TEV cleavage after the incubation with Glo3; also called …
Assay: pull-down; TAP-immobilised COPI incubated with a molar excess of MBP-Glo3 (ΔAmpH) for 20 min at 4°C, washed, eluted by TEV cleavage; Coomassie staining and western blots
Conditions: both partners purified

B1: MBP-Glo3 (ΔAmpH), Glo3 (1–459) lacking its distal amphipathic helix (domain or fragment)
chain: not shown
notes: Glo3, S. cerevisiae, residues 1-459, without the distal amphipathic helix (printed as 459–493); After TEV elution of the complex the eluates were incubated with amylose resin to deplete MBP; also called Glo3 lacking a C-terminal amphipathic helix; source: E. coli Rosetta (DE3) or BL21 (pREP4), purified (Ni-IDA resin), dialysed
binding result: binds
